Experimental findings from the RNAGym collection of RNA variant scans (doi:10.1073/pnas.2313332121) are described below.

B1: TPR t1 (parent)
chain: GACCAAUCUGCCCUCAGAGCUCGAGAACAUCUUCGGAUGCAGAGGAGGCAGGCUUCGGUGGCGCGAUAGCGCCAACGUCCUCAACCUCCAAUGCAUCCCACCACAUGAUGAUGCCUGAAGAGCCUUGGUUUUUUG

In this data set the parent is B1. The data set can be described thus: polymerase ribozyme fitness, log enrichment relative to wild type (log ratio); higher = more active; in vitro selection for triplet polymerase activity. In a few lines:
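To select mutant libraries of each subunit of a heterodimeric triplet polymerase ribozyme, built by PCR and transcribed, each was annealed with a biotinylated primer, partner subunit and triplets, then incubated frozen at −7 °C. Extended constructs were gel-excised, captured on streptavidin beads and amplified by RT-PCR, in one round carried out in triplicate. Illumina sequencing of input and output libraries kept genotypes with ≥10 input reads and ≥1 read per output. Fitness is the base-2 logarithm of genotype enrichment relative to wild-type enrichment, from inverse-variance-weighted replicate averages.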
Turning to GACCAAUCGGCCCUCAGAGCUCGAGAACAUCUUCGGAUGCAGAGGAGGCAGGCUUCGGUGGUGCGAUAGCGCCUACGUCCUCAACCUCCAAUGCAUCCCACCACAUGAUGAUGCCUGAAGAGCCUUGGUUUUUUG, the “polymerase ribozyme fitness (log ratio)” value was -0.576.

Turning to GACCAAUCGGCCCUCAGAGCUCGAGAACAUCUUCGGAUGCAGAGGAGGCAGGCUUCGGUGGCGCGAUAGCGCCAACGUCCUCAACCUCCAAUGCAUCCCACCACAUGAUGAUGCUUGAAGAGCCUUGGUUUUUUG, the “polymerase ribozyme fitness (log ratio)” value was -0.945.

For GACCAAUCGGCCCUCAGAGCUCAAGAACAUUUUCGGAAGCAGAGGAGGCAGGCUUCGGUGGCGCGAUAGCGCCAACGUCCUCAACCUCCAAUGCAUCCCACCAAAUGAUGAAGCCUGAAGCGCCUGGGUUUUUUG, the “polymerase ribozyme fitness (log ratio)” value is -6.73.

For GACCAAUCGGCCCUCAGAACUCGAGAACAUCUUCGGAUGCAGAGGAGGCAGGCUUCGGUGGCGCGAUAGCGCCAACGUCCUCAACCUCCAAUGCAUCCCACCACAUGAUCACGCCUGAAGAGGGUUGGUUUUUUG, the “polymerase ribozyme fitness (log ratio)” value is -7.8.

Regarding GACCAAUCGGCCCUCAGAGCUCGAGAACAUCUUCGGAUGCAGAGGAGGCAGGCUUGGGUGGCGCGAUAGCGCCAACGUCCUCAACCUCCAAUGCAUCCCACCACAUGAUGAUGCCUGAAGAGCCUUGGUUUUUUG, the “polymerase ribozyme fitness (log ratio)” value is -0.492.

Consider GACCAAUCGGCCCUCAGAGCUCGAGAACAUCUUCGGAUGCAGAGGAGGCAGGCUUCGGUGGCGCGAUAGCGCCAACGUCCUCAACCUCCAAUGCAUCCCAUCACAUGAUGAUGCCUGAAGAGCCUUGGUUUUUUG, for which the “polymerase ribozyme fitness (log ratio)” value was 0.459.

For GACCAAUCGGCCCUCAGAGCUCGAGAACAUCUUCGGAUGCAGAGGAGGCAGGCUUCGGUGGCGUGAUAGCGCCAACGUCCUCAACCUCCAAUGCAUCCCACCACAUGAUGAUGCCUGAAGAGCCUUGGUUUUUUG, the “polymerase ribozyme fitness (log ratio)” value is 0.223.

Regarding GACCAAUCGGCCCUCAGAGCUCGAGAACAUCUUCGGAUGCAGAGGAGGCAGGCUUGGGUGUCGCGAUAGCGCCAACGUCCUCAACCUCCAAUCCAUCCCACCACAUGAUGAUGCCUGAAGAGCCUUGGUUUUUUG, the “polymerase ribozyme fitness (log ratio)” value was -3.2.

Turning to GACCAAUCGGCCCUCAGAGCUCGAGAACAUCUUCGGAUGCAGAGGAGGCAGGCUUCGGUGGCGCGAUAGAGCCAACGUCCUCAAUCUCCGAUGCAUCCCACAACAUGAUGAUGCCUGAAGAGCCUUGGUUUUUUG, the “polymerase ribozyme fitness (log ratio)” value was -4.92.

As to GACCAAUCGGCCCUCAGAGCUCGAGAACAUCUUCGGAUGCAGAGGAGGCAGGCUUCGGUGGCGCGAUAGCGCCAACGUCCUCAACCUCCAAUGCAUACCACCACAUGAUGGUGCCUGAAGAGCCUUGGUUUUUUG, the “polymerase ribozyme fitness (log ratio)” value is -6.78.

For GACCAAUCGCCCCUCAGAGCUCGAGAACUUCUUCGGAUGCAUGGGCGGCAGGCUUCGGUGGCGCGAUAGCGCCAACGUCCUCAACCUCCAAUGUAUCCCACCACAUGAUGAUGCCUGAAGAGCCUUGGUUUUUUG, the “polymerase ribozyme fitness (log ratio)” value was -4.04.

For GACCAAUCGGCCCUCAGAGCUCGAGAACAUCUUCGGAUGCAGAGGAGGCAGGCUUCGGUGGCGCGAUAGAGCCAACGUCCUCAACAUCCAAUGCAUCCCACCACAUGAUGAUGCCUGAAGAGUCUUGGUUUUUUG, the “polymerase ribozyme fitness (log ratio)” value was -0.996.

In the case of GACCAAUCGGCCCUCAGAGCUCGAGAACAUCUUCGGAUGCAGAGGAGGCAGGCUUCGGUGGCGCGAUAGCGCCAACGUCAUCAACCUCCAAUGCAUCCCACCACAUGAUGAUGCCUGAAGAGCCUUGGUUUUUUG, the “polymerase ribozyme fitness (log ratio)” value was -2.27.

Regarding GACCAAUCGGCCCUCAGAGCUCGAGAACAUCUUCGUAUGCAGAGGAGGCAGGCUUCUGUGGCGCGAUAGCGCCAACGUCCUCAACCUCCAAUGCAUCCCACCACAUGAUGAUGCCUGAAGAGCCUUGGUUUUUUG, the “polymerase ribozyme fitness (log ratio)” value was -0.893.

For the variant GACCAAUCGGCCCUCAGAGCUCAAGAACAUCUUCGGAUGCAGAGGAGGCAGGCUUCGGUAGCGCGAUAGCCCCAACGUCCUCAACCUCCAAUGCAUCCCACCACAUGAUGAUUCCUGAAGAGCCUUGGUUUUUUC, the “polymerase ribozyme fitness (log ratio)” value is -5.28.

As for GACCAAUCGGCCCUCAGAGCUCGAGAACAUCUUCGGAUGCAGAGGAGGCAGGCUUCGGUGGCGCGAUAGCGCCAACGUCCUCAAUCUCCAAUGCAUACCACCACAUGAUGAUGCGUGAAGAGCCUUGGUUUUUUG, the “polymerase ribozyme fitness (log ratio)” value is -4.92.

Take GACCAAUCGGCCCUCAGAGCUCGAGAACAUCUUCGGAUGCAGAGGAGGCAGGCUUCGGUGGCGCGAUAGCGCCAACGUCCUCAACGUCCAAUGCAUCCCACCACAUGAUGAUGCCUGAUGAGCCUUGGUUUUUUG: the “polymerase ribozyme fitness (log ratio)” value is 0.167.

On to GACCAAUCGGCCCUCAGAGCUCAAGAACAUCUUCGGAUGCAGAGGAGGCAGGCUUCGGUGGCGCGAUAGCGCCAACGUCCUCAACCUCCAAUGCAUCCCACCACAUGAUGAUGCCUGAAGAGCCUUGGUUUUUUG, for which the “polymerase ribozyme fitness (log ratio)” value is -5.2.

On to GACCAAUCGGCCCUCAAUGCUCGAGAACAUCUUCGGAUGCAGAGGUGGCAGGCUUCGGUGGCGCGAUAGCGCAAACGUCCUCAGCCACCAAUGCAUCCCACCACAUGAUGACGCCUGAAGAGCCUUCGUUUUUAG, for which the “polymerase ribozyme fitness (log ratio)” value was -3.68.

As for GACCAAUCGGCCCUCAGACCUCGAGAACAUCUUCGGAUGCAGAGGAGGCAGGCUUAGGUGGCGCGAUACCGCCAACGUCCUCAACCUCCAAUGCAUCCCACCACAUGAUGAUGCCUGAAGAGCCUUGGUUUUUUG, the “polymerase ribozyme fitness (log ratio)” value was -6.2.

On to GACCAAUCGGCCCUCAGAGCUCGAGAACAUCUUCGGAUGCAGAGGAGGCAGGCUUCGGUGGCGCGAUAGCGCCAACGUCCUCAACCUCCAAUGCAUCACACCACAUGAUGAUGCCUGAAGAGCCUUGGUUUUUUG, for which the “polymerase ribozyme fitness (log ratio)” value is -5.08.

With GACCAAUCGGCCCUCAGAGCUCGAGAACAUCUUCGGAUGCAGAGGAGGCAGGCUUCGGUGGCGCGAUAGCGCCAACGUCCUCAACCUCCAAUGCAUCUCACCACAUGAUGAUGCCUGAAGAGCCUUGGUUUUUUG, the “polymerase ribozyme fitness (log ratio)” value was -0.308.

Regarding GACCAAUCGUCCCUCAGAGCUCGAGAACAUCUUCGGAUGCAGAGGAGGCAGGCUUCGGUGGCGCGAUAGGGCCAACGUCCUCAACCUCCAAUGCAUCCCACCACAUGAGGAUGCCUGAAGAGCCUUGGUUUUUUG, the “polymerase ribozyme fitness (log ratio)” value was -6.73.

For the variant GACCAAUCGGCCCUCACAGCUCGAGGACAUCUUCGGAUGCAGAGGAGGCAGGCUUCGGUGGCGCGAUAGCGCCAACGUCCUCAACCUCCAAUGCAUCCCACCACAUGAUGAUGCCUGAAGAGCCUUGGUUUUUUG, the “polymerase ribozyme fitness (log ratio)” value is -3.96.

GACCAAUCGGCCCUCAGAGCUCGAGAACAUCUUCGGAUGCAGAGGAGGCAGGCUUGGGUGGCGCGAUAGCGCCAACGUCCUCAACCUCCAAUGCAUCCCACCUCAUGAUGAUGCCUGAAGAGCCUUGGUUUUUUG: the “polymerase ribozyme fitness (log ratio)” value was -4.39.

Consider GACCAAUCGGCCCUCAGAGCUCGAGAACAUCUUCGGAUGCAGAGGAGGCAGGCUUGGGUGGCGCGAUAGCGCCAACGUCCGCAACCUCCAAUGCAUCCCACCACAUGAUGAUGCCUGAAGAGCCUUGGUUUUUUG, for which the “polymerase ribozyme fitness (log ratio)” value was -1.23.

As for GACCAAUCGGCCCUCAGAGCUCGAGAACAUCUUCGGAUGCAGAGGAGGCAGGCUUCGGUGGCGCGAUAGCGCCAAGGUCCUCAACCUCCCAUGCAUCCCAUCACAUGAUGAUGCCUGAAGAGCCUUGGUUUUUUG, the “polymerase ribozyme fitness (log ratio)” value was -1.34.

With GACCAAUCGGCCCUCAGAGCUCGAGAACAUCUUCGGAUGCAGAGGAGGCAGGCUUCGGUGGCGCGAUAGCGCCAACGUCCUCAACCUCCAAUGCAUCCCACUACAUGAUGAUGCCUGAAGAGCCUUGGUUUUUUG, the “polymerase ribozyme fitness (log ratio)” value is -1.48.

Turning to GACCAAUCGGCCCUCAGAGCUCGAGAACAUCUUCGGAUGCAGAGGAGGCAGGCUUCGGUGGCGCGAUAGCGCCAACGUCCUCAACCUCCAAUGCAUGCCACCAUAUGAUGAUGCCUGAAGAGCCUUGGUUUUUUG, the “polymerase ribozyme fitness (log ratio)” value is -2.99.

In the case of GACCAAUCGGCCCUCAGAGCUCUAGAACAUCUUCGGAUGCAGUGGAGGCAGGCUUCGGUGGCGCGAUAGCACCAACGUCCUCAACCUCCAAUGCAUCCCACCACAUGAUCAUGCCUGAAGAGCGUGGGUUUUUUG, the “polymerase ribozyme fitness (log ratio)” value was -8.22.

In the case of GACCAAUCGGCCCUCAGAGCUCGAGAACAUCUUCGCAUGCAGAGGAGGCAGGCUUCGGUGGCGCGAUAUCGCCAACGUCCUCAACCUCCAAUGCAUCCCACCCUAUGAUGAUGCCUGAAGAGCCUUGGUUUUUUG, the “polymerase ribozyme fitness (log ratio)” value was -2.45.

As for GACCAAUCGGCCCUCAGAGCUCGAGAACAUCUUCGGAUGCAGAGGAGGCAGGCUUCGGUGGCGCGAUAGCGCAAACGUCCUCAACCUCCAAUGCAUCCCACCACAUGAUGAUGCCUGAAGAGCCUUGGUUUUUUG, the “polymerase ribozyme fitness (log ratio)” value was -0.668.

Turning to GACCAAUCGGCCCUCAGAGCUCGAGAACAUCUUCGAAUGCAGAGGAGGCAGGCUUCGGUGGCGCGAUAGUGCCAACGUCCUCAACCUCCAAUGCAUCCCACCACAUGAUGAUGCCUGAAGAGCCUUGGUUUUUUG, the “polymerase ribozyme fitness (log ratio)” value was -0.939.

Regarding GACCAAUCGGCCCUCAGAUCUCGAGAACAUCUUCGGAUGCAGAAGAGGCAGGCUUCGCUGGCGCGAUAGCGCCAACGUCCUCAACCUCCAAUGCAUCCCACCACAUGAUGAUGCCUGAAGAGCCUUGGUUUUUUG, the “polymerase ribozyme fitness (log ratio)” value is -3.46.

Turning to GACCAAUCGGCCCUCAGAGCUCGAGAACAUCUUCGGAUGCAGAGGAGGCAGGCUUCGGUGGCGCGAUAGCGUCAACGUCCUCAACCUCCAAUGCAUCCCACCACAUGAUGAUGCCUGAAGAGCCUUGGUUUUUUG, the “polymerase ribozyme fitness (log ratio)” value was 0.16.

In the case of GACCAAUCGGCCCUCAGAGCUCGAGAACAUCUUCGAAUGCAGAGGAGGCAGGCUUCGGUGGCGCGAUAGCGCCAACGUCCUCAACCCCCAAUGCAUCCUACCACAUGAUGAUGCCUGAAGAGCCUUGGUUUUUUG, the “polymerase ribozyme fitness (log ratio)” value was -3.41.

With GACCAAUCGGCCCUCAGAGCUCGAGAACAUCUUCGGAUGCAGAGGAGGCAGGCUUCGGUGGCGCGAUAGCGCCAACGUCCUCAACCUACAAUGCAUCCCACCACAUGAUGAUGCCUGAAGAGCCUUGGUUUUUUG, the “polymerase ribozyme fitness (log ratio)” value was -0.00805.

In the case of GACCAAUCGGCCCUCAGAGCUCGAGAACAUCUUCGGAUGCAGAGGAGGCAGGCUUCGGUGGCGCGAUAGCGCCAACGUCCUCAACCUUCAAUGCAUCCCACCACAUGAUGAUGCCUGAAGAGCCUUGGUUUUUUG, the “polymerase ribozyme fitness (log ratio)” value is -0.0494.

Regarding GACCAAUCGGCCCUCAGAGCUCGAGAACAUCUUCGGAUGCAGAGGAGGCAGGCUUCGGUGGCGCGAUAGCGCCAACGUCCUCAACCUCAAAUGCAUCCCUCCACAUGAUGAUGCCAGAAGAGCCUUGGUUUUUUG, the “polymerase ribozyme fitness (log ratio)” value is -4.84.

Regarding GACCAAUCGGCCCUCAGAGCUCGAGAACAUCUUCGGAUGCAGAGGAGGCAGGCUUCGGUGGCGCGAUAGCGCCAACGUCUUCAACCUCCAAUGCAUCCCACCACACGAUGAUGCCUGAAGAGCCUUGGUUUUUUG, the “polymerase ribozyme fitness (log ratio)” value was 0.49.

For the variant GACCAAUCGGCCCUCAGAGCUCGAGAACAUCUUCGGAUGCAGAGGAGGCAGGCUUCGGUGGCGCGAUAGUGCCAACGUCCUCAACCUCCAAUGCAUCUCACCACAUGAUGAUGCCUGAAGAGCCUUGGUUUUUUG, the “polymerase ribozyme fitness (log ratio)” value was -1.09.

On to GACCAAUCGGCCCUCAGAGCUCGAGAACAUCUUCGAAUGCAGAGGAGGCAGGCUUCGGUGGCGCGAUAGCGCCAACGUCCUCAACCUCCAAUGCAUCCCACCACAUGAUGAUGCCUGAAGAGCCUUGGUUUUUUG, for which the “polymerase ribozyme fitness (log ratio)” value is -0.196.
